Experimental data published in PMC8005835.

Target: Von Willebrand factor (VWF) (human) (UniProt P04275)
Test: specific fVIII activity of the purified complex; heparin-Sepharose purified starting material, VWF 0.54 mg/ml and fVIII activity 38 U/ml (one-stage coagulation assay); mass ratio worked out with a cited specific activity of fVIII of ~5000 U/mg

blood coagulation factor VIII (fVIII) (natural protein)
percentage mass ratio of fVIII to VWF: 1%
